The series deals with recombinant H2A.X (WT), N-terminal 6xHis tag.

Regarding “recombinant N-terminal portion of WSTF (N-WSTF)”, the “kinase activity (in vitro kinase assay)” value is recorded as “Only N-WSTF had kinase activity”.

The record behind these values is patent publication US20100080799.
